Here are results for 14 molecules from patent US20050054571A1, “Antimicrobial proteins from the SPO1 bacteriophage” (Rice University, priority 2003, published 2005).

Entries after “also recorded” stand apart in the source; their conditions may differ. Read-outs that look alike come from different tables or passages of the source.

Type in all cases: cell-based
One test deals with E. coli. Description: Effect of induced expression of cloned SPO1 genes on growth and viability of E. coli (liquid medium and colony formation). Conditions: cloned gene(s) expressed from IPTG-inducible promoter, * = lethality conclusion based on failure to clone, ** = data not conclusive. From the text: (§1) For analysis of antimicrobial activity we first cloned most of the 24 host-takeover genes (genes 37-60) singly or in multiple gene combinations into a B. subtilis/E. coli shuttle vector (pPW19) under control of an IPTG-inducible promoter (Wei and Stewart, 1993). […] These remaining genes are being cloned using expression vectors with more tightly regulated promoters, such as pJONEX4 (Sayers, 1996), pET101, or pX (Kim et al., 1996). The transformed E. coli and B. subtilis were used to determine the antimicrobial activity, if any, of the cloned genes. The effect of induction on bacterial growth and viability was measured both in liquid medium and by colony formation. Definitive establishment of lethality was shown by loss of the ability to form colonies even after removal from the inducing agent. Indication of probable lethality was based on total inability to form colonies under inducing conditions.

The test system of the next test is B. subtilis. Kind of test: Effect of induced expression of cloned SPO1 genes on growth and viability of B. subtilis (liquid medium and colony formation). Conditions: cloned gene(s) expressed from IPTG-inducible promoter, * = lethality conclusion based on failure to clone, ** = data not conclusive.
Excerpt: as §1

Another test relates to bacteria. Kind of test: Toxicity or lethality of expression of cloned SPO1 genes, bacterium not given.
Excerpt: as §1
In cells growing in liquid medium, expression of the cloned gene 44 was induced at time 0. At subsequent times, the number of cells remaining viable was measured by plating in the absence of inducer. More than 99% of the cells were killed within three hours.

“Gene 58: product of SPO1 host-takeover gene 58, SEQ ID NO: 22 (MTLAGYRVDSCNGCGKAYLVGESHDRKKCAECASK; SPO1 Bacteriophage)”: the “Lethality, E. coli” value in the test on E. coli was “Mildly toxic”. Moreover, the “Lethality, B. subtilis” value in the test on B. subtilis was “No effect”.
Regarding “Gene 37: product of SPO1 host-takeover gene 37, SEQ ID NO: 1 (MSDVIIPFLTSAVTAFIVAYLLDRWYIKRRR; SPO1 Bacteriophage)”, the “Lethality, E. coli” value in the test on E. coli was “Lethal *”. For the same molecule, the “toxicity or lethality of expression” value in the test on bacteria was “lethal”.

B1: Gene 41: product of SPO1 host-takeover gene 41, SEQ ID NO: 5 (protein)
chain: MEKLPNTVVKVHGEGMESKLFPRKLHKDTNSILREDLVSACQEHIEALVEGMIAHGDGRKVAELDTSTQYYWHLKLVEYTPIPGRTQHYVDLVDGTNPDVCYFSLCDCSGDNITDRRWSNMVKRLQNPEEDIAKTLRCYFRQDAGMPSWIEYPQ
modifications: SPO1 Bacteriophage
Turning to B1, the “Lethality, E. coli” value in the test with E. coli (listed as 41) is on record as “only a mild effect; also recorded: Mildly Toxic”. Further, in the test on B. subtilis (listed as 41), the “Lethality, B. subtilis” value is listed as “lethal; also recorded: Lethal *”.

B2: Gene 48: product of SPO1 host-takeover gene 48, SEQ ID NO: 12 (protein)
chain: MPYSKITVPVLVGEGLTEWDVIDVMRETHPPTVEDQYHYHTFDSMQNRTIFVLENPLYPDVDKIPEKVLGIAVDALEDMLDNVPVEDLPVTEEQGNVKRFTTKLASIVFDVFLIIPDFVSVTAKEE
modifications: SPO1 Bacteriophage
With B2, the “Lethality, E. coli” value with E. coli (listed as 48) is “strongly toxic but not lethal; also recorded: Strongly Toxic”. The “Lethality, B. subtilis” value in the test on B. subtilis (listed as 48) was “strongly toxic but not lethal; also recorded: Strongly Toxic”.

B3: Gene 38: product of SPO1 host-takeover gene 38, SEQ ID NO: 2 (protein)
chain: MSVQIKHGNKTFVVDPSGDVKEGSYVLYLYEYRLGEVDVGRVSEVANDGRLYLDGPGVIVTLDQPFILLKEVVEEEEDEDDRIDAEFHNDPLLRKLENTTEKLTPEETQLAQWTTMTRVFSHDLKKGIPYAIKHKNSGNILYGLYSGLLNPVTALFRHLNEESKISIEQLKSGLIEIYEVVEDEEESIWN
modifications: SPO1 Bacteriophage
B3: the “Lethality, E. coli” value in the test with E. coli was “Highly toxic”. For the same molecule, the “Lethality, B. subtilis” value with B. subtilis is reported as “No effect **”.

B4: Gene 42: product of SPO1 host-takeover gene 42, SEQ ID NO: 6 (protein)
chain: MRKFVTTLTASPRNKKVGNHRLEISPFVSLRRYYYFNTAICIENPVTREFAIDDSYGSLSTNQNCAQYRQYFSLGGYKEVSLEEIHAV
modifications: SPO1 Bacteriophage
Turning to B4, the “Lethality, E. coli” value with E. coli (listed as 42) is given as “no toxic effect”. For the same molecule, the “Lethality, B. subtilis” value in the test on B. subtilis (listed as 42) is listed as “no toxic effect”.

B5: Gene 57: product of SPO1 host-takeover gene 57, SEQ ID NO: 21 (protein)
chain: MTLFIAGVTLEEVREATVSALFVKLEQEKKALYLGAGSEDSLNLCKSTLDKVQEDYPLDDMEKDYLRDLLQFWLSRLFLGDGFEGEIPDSSEDLRRTATTAFTYTAAIRHYCM
modifications: SPO1 Bacteriophage
On to B5, for which the “Lethality, E. coli” value in the test with E. coli was “Mildly toxic”. For the same molecule, the “Lethality, B. subtilis” value in the test on B. subtilis is “No effect”.

B6: Gene 39: product of SPO1 host-takeover gene 39, SEQ ID NO: 3 (protein)
chain: MELNLDIYVDYKDKRYKAEGYYGPSVGDLVLIFMDMELEGATVQEVARIEGSEIHLRTPNGNEPSYRYMGQYLILKPYGSSDPRGDILVHEDVQYVRVDAQAMPGDLIEALEPNKLPFSGKRFKYRPAVLEVEYVLTKDEQVLQLENGKSYSGAYRVLIPRMGVLPPKTHIYTTHKHVFMEDVFVLGNSYELSSPNDVEMTPIHAVFTGFSKNRDEAIFVNPYYNDDGVTGTMITVSDLLTGKWDITPLVPKKGV
modifications: SPO1 Bacteriophage
As for B6, the “Lethality, E. coli” value in the test with E. coli is “Lethal”. Further, the “toxicity or lethality of expression” value in the test with bacteria (listed as 39) is on record as “lethal effect”.

B7: Gene 40: product of SPO1 host-takeover gene 40, SEQ ID NO: 4 (protein)
chain: MHIYTYWGLKYVPSNSTMVAKEGDLILLGNEVHKVVKVLHRFRNITDLQITNWKGTETRYNLHVTEYKVLVPYDTHKEENEAMSDSLITHNGKDYVLCKIPARVGDLIRTEDKRVWEVLQKSKDGLVLYNEEKGEQRSAVYSEIGPYHVLVPRDTDTHTPTREELAAVIMNKAFTRTETQDSQEDTGTHKGLGLTGTDLYHSLRDLDAKVQSGYYTATENEEDVKSEIEATKKHMKAVKESGKTVNDYRKEENTKRCKLKALTNKFNRLFLKSVIDTDSLQVGKAYLIGGRDMKNVHGLYTGTTFDQQHANFLIVETDRMHRTLTVSAEQLFAEERHIVDIEKRVEQTED
modifications: SPO1 Bacteriophage
In the case of B7, the “Lethality, E. coli” value in the test with E. coli (listed as 40) was “only mildly toxic”. In addition, the “Lethality, B. subtilis” value with B. subtilis (listed as 40) is “only mildly toxic; also recorded: Inconsistent”.

B8: Gene 47: product of SPO1 host-takeover gene 47, SEQ ID NO: 11 (protein)
chain: MDWTKMTFMGTVDEVKEIWNGLEEAGRLYAVWLSDDHVYGIVDVNEEGLFCLGWVSDISPESLQNMLGGGAELFESYEDVLSEHGGSIAIRVEV
modifications: SPO1 Bacteriophage
As for B8, the “Lethality, E. coli” value with E. coli (listed as 47) was “little or no effect; also recorded: No effect”. Besides, the “Lethality, B. subtilis” value with B. subtilis (listed as 47) is “little or no effect; also recorded: No effect”.

B9: Gene 52: product of SPO1 host-takeover gene 52, SEQ ID NO: 16 (protein)
chain: MTHFISIATYIYALVSAGFIGGWHDEESWIKDTEYEHGGYHMIIDTPAVVNYSLEYGNYQWIFQKYMKEGKVTVERFYRNSLDIPKEILTDEALAFIKDWDENANEYELHAGEGVLYFKYEGEEKGYVIPMAYAGEIMFVPDEDAEKALEIINSQKKY
modifications: SPO1 Bacteriophage
Take B9: the “Lethality, E. coli” value with E. coli (listed as 52) is “Lethal”.

B10: Gene 46: product of SPO1 host-takeover gene 46, SEQ ID NO: 10 (protein)
chain: MMTEDQKFKYLTKIEELEAGCFSDWTKEDITGDLKYLKKGIIEESIELIRAVNGLTYSEELHDFTQEIIEELDISPL
modifications: SPO1 Bacteriophage
In the case of B10, the “Lethality, E. coli” value in the test on E. coli is “Lethal”. For the same molecule, the “toxicity or lethality of expression” value in the test on bacteria is given as “lethal but with diminished efficiency”. In addition, the “Lethality, B. subtilis” value in the test on B. subtilis was “Mildly Toxic”.

B11: Gene 43: product of SPO1 host-takeover gene 43, SEQ ID NO: 7 (protein)
chain: MIQLSERQQDLLQVAEKYEQCHIEFYTAQSRLFGTEIMGEVVKTSLGTLKIAHPEEDLFEVALAYLASKKDILTAQERKDVLFYIQNNLC
modifications: SPO1 Bacteriophage
Regarding B11, the “Lethality, E. coli” value with E. coli (listed as 43) was “too inconsistent to permit any conclusion; also recorded: Indeterminate”. Also, in the test with B. subtilis (listed as 43), the “Lethality, B. subtilis” value is reported as “too inconsistent to permit any conclusion; also recorded: Indeterminate”.

B12: Gene 45: product of SPO1 host-takeover gene 45, SEQ ID NO: 9 (protein)
chain: MMMDKQVEEVKKHYPIVEDWSVIVARKEDDCMTVTDAVPFILAGYKNVSYEMDDIVVLCSEPIGLTWEDVRFLKNHEGSVSFEEIGYEDKAMVYHVDLG
modifications: SPO1 Bacteriophage
Turning to B12, the “Lethality, E. coli” value with E. coli was “Toxic”. The “toxicity or lethality of expression” value in the test with bacteria is “toxic but not lethal”. Also, the “Lethality, B. subtilis” value in the test on B. subtilis is “Mildly Toxic”.
